US20220267751A1 (MONASH UNIVERSITY, published 2022)

B1: recombinant plasmin (enzyme)
heavy: EPLDDYVNTQGASLFSVTKKQLGAGSIEECAAKCEEDEEFTCRAFQYHSKEQQCVIMAENRKSSIIIRMRDVVLFEKKVYLSECKTGNGKNYRGTMSKTKNGITCQKWSSTSPHRPRFSPATHPSEGLEENYCRNPDNDPQGPWCYTTDPEKRYDYCDILECEEECMHCSGENYDGKISKTMSGLECQAWDSQSPHAHGYIPSKFPNKNLKKNYCRNPDRELRPWCFTTDPNKRWELCDIPRCTTPPPSSGPTYQCLKGTGENYRGNVAVTVSGHTCQHWSAQTPHTHNRTPENFPCKNLDENYCRNPDGKRAPWCHTTNSQVRWEYCKIPSCDSSPVSTEQLAPTAPPELTPVVQDCYHGDGQSYRGTSSTTTTGKKCQSWSSMTPHRHQKTPENYPNAGLTMNYCRNPDADKGPWCFTTDPSVRWEYCNLKKCSGTEASVVAPPPVVLLPDVETPSEEDCMFGNGKGYRGKRATTVTGTPCQDWAAQEPHRHSIFTPETNPRAGLEKNYCRNPDGDVGGPWCYTTNPRKLYDYCDVPQCAAPSFDCGKPQVEPKKCPGR
light: VVGGCVAHPHSWPWQVSLRTRFGMHFCGGTLISPEWVLTAAHCLEKSPRPSSYKVILGAHQEVNLEPHVQEIEVSRLFLEPTRKDIALLKLSSPAVITDKVIPACLPSPNYVVADRTECFITGWGETQGTFGAGLLKEAQLPVIENKVCNRYEFLNGRVQSTELCAGHLAGGTDSCQGDSGGPLVCFEKDKYILQGVTSWGLGCARPNKPGVYVRVSRFVTWIEGVMRNN
notes: Made by cleaving rPlg with tPA; also called rPlm; recombinant Plm

Experiments:
[1] = molecular target: T1, recombinant streptokinase from Streptococcus pyrogenes (so in the source) (Streptococcus pyrogenes (so in the source)); assay: SPR (Biacore T200), SK on Ni2+-NTA chip, 1:1 Langmuir model
T1 construct: Immobilised on a Ni2+-NTA chip; also called SK

[2] = molecular target: T2, native plasminogen (purchased from Merck, purified from human plasma) (human, UniProt P00747 20-810); assay: SPR (Biacore T200), α2-AP on Ni2+-NTA chip, two-state reaction model, ka1; ka1, first step of the two-state model
T2 construct: mature; also called native Plg; nPlg

[3] = molecular target: T2, native plasminogen (purchased from …); assay: SPR (Biacore T200), α2-AP on Ni2+-NTA chip, two-state reaction model; overall KD of the two-state reaction model
recombinant plasmin = molecular target: B1; assay: SPR (Biacore T200), α2-AP on Ni2+-NTA chip, 1:1 Langmuir model
[4] = molecular target: T3, native plasmin (purchased from Haematologic Technologies) (UniProt P00747 97-580; P00747 581-810, limits assumed); assay: as above
T3 construct: Plasmin has two disulphide-linked chains (heavy and light); also called native Plm

recombinant plasminogen = molecular target: T4, recombinant plasminogen (human, UniProt P00747 20-810); assay: as above
T4 construct: also called rPlg; recombinant Plg

[5] = molecular target: T2, native plasminogen (purchased from …); assay: SPR (Biacore T200), α2-AP on Ni2+-NTA chip, two-state reaction model, kd1; kd1, first step of the two-state model

Binder	Kd [1] [nM]	koff [1] [s⁻¹]	kon [1] [M⁻¹ s⁻¹]	kon [2] [M⁻¹ s⁻¹]	Kd [3] [nM]	Kd (recombinant plasmin) [nM]	koff (recombinant plasmin) [s⁻¹]	kon (recombinant plasmin) [M⁻¹ s⁻¹]	Kd [4] [nM]	koff [4] [s⁻¹]	kon [4] [M⁻¹ s⁻¹]	Kd (recombinant plasminogen) [nM]	koff (recombinant plasminogen) [s⁻¹]	kon (recombinant plasminogen) [M⁻¹ s⁻¹]	koff [5] [s⁻¹]
B1	0.04	1.6e-05	410000												
recombinant alpha 2-antiplasmin (other, UniProt P08697 40-491, looked up, Serpin, immobilised on a Ni2+-NTA chip; also called α2-AP; α2AP) NQEQVSPLTLLKLGNQEPGGQTALKSPPGVCSRDPTPEQTHRLARAMMAFTADLFSLVAQTSTCPNLILSPLSVALALSHLALGAQNHTLQRLQQVLHAGSGPCLPHLLSRLCQDLGPGAFRLAARMYLQKGFPIKEDFLEQSEQLFGAKPVSLTGKQEDDLANINQWVKEATEGKIQEFLSGLPEDTVLLLLNAIHFQGFWRNKFDPSLTQRDSFHLDEQFTVPVEMMQARTYPLRWFLLEQPEIQVAHFPFKNNMSFVVLVPTHFEWNVSQVLANLSWDTLHPPLVWERPTKVRLPKLYLKHQMDLVATLSQLGLQELFQAPDLRGISEQSLVVSGVQHQSTLELSEVGVEAAAATSIAMSRMSLSSFSVNRPFLFFIFEDTTGLPLFVGSVRNPNPSAPRELKEQQDSPGNKDFLQSLKGFPRGDKLFGPDLKLVPPMEEDYPQFGSPK				1.1e+06	9.8	0.68	0.00011	160000	0.85	0.0043	5.1e+06	3.4	0.0005	150000	0.065
